Results published in US8722052B2, “Vaccinia virus protein A46 peptide and use thereof” (priority 2008, dated 2014).

Molecular target: T1, TLR8 (Homo sapiens, UniProt Q9NR97)
T1 construct: expressed in transfected cells
T1 sequence (Q9NR97 27-1041): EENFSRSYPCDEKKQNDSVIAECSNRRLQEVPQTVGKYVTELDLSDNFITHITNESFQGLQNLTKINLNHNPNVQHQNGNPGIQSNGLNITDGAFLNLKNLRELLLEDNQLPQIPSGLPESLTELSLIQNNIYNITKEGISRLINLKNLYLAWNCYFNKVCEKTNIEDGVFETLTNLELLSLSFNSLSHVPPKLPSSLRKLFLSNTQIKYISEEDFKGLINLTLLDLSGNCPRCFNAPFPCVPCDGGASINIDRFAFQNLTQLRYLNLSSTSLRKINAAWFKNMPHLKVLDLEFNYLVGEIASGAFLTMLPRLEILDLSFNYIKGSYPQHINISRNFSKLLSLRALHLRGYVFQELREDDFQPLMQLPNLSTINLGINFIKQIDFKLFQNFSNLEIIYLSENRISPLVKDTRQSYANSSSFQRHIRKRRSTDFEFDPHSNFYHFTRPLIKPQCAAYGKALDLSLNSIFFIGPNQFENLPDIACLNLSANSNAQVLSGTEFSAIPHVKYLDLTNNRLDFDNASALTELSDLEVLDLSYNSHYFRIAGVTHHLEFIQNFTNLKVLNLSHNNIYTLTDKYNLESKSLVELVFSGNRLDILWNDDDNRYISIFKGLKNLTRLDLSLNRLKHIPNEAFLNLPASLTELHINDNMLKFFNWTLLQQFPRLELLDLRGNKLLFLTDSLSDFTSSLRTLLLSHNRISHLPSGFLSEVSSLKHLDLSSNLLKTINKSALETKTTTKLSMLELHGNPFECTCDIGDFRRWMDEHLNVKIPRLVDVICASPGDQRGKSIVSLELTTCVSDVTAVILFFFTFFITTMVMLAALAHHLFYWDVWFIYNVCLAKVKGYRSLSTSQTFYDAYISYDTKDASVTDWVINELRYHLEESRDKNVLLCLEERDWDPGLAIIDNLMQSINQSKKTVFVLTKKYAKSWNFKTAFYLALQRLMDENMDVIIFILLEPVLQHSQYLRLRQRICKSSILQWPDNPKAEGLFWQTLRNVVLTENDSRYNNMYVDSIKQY
Assay: CL075-induced NFκB reporter assay in HEK293_TLR8 cells
Assay type: cell-based
Conditions: peptide 1, 5 or 25 μM, 2.5 μg/ml CL075, 6 h
Experimental: FIG. 12 is a bar chart showing the effect of A467 and A464 on TLR8-induced NFκB activation in HEK293 cells. HEK293_TLR8 cells were transfected with 60 ng NFκB-Luciferase and 20 ng of TK-Renilla reporter genes, as in FIG. 11. A467 (SEQ ID NO. 23) and A464 (SEQ ID NO. 20) were added to the cells at a concentration of 1, 5 or 25 μM the next day and cells were stimulated with 2.5 μg/ml CL075 1 hour after treatment with the peptide. Cells were harvested and assayed for NFκB activation by reporter gene assay 6 hr after stimulation with the agonist. No peptides were added to the control wells (black bars). Data is representative of at least three experiments each performed in triplicate. Data are expressed as mean fold induction±s.d. relative to control levels;
HEK293 cells were transfected using GeneJuice® a proprietary non-toxic transfection reagent. 200 μl/well cells at a density of 1×10^5 cells/ml were seeded the day before transfection. 0.8 μl of GeneJuice was mixed with 9.2 μl of serum-free DMEM (SFM) per transfection and incubated for 5 min at room temperature before adding the appropriate amount of the plasmid DNA. The GeneJuice/SFM/DNA mixture was then incubated at room temperature for 15 min before adding to the cells. […] Luciferase activity was analysed using a luminometer. […]

KYSFKLILAEYRRRRRRRRR [Peptide A464]
inhibition of TLR8-dependent NFκB activation: neither A467 (SEQ ID No. 23) nor A464 (SEQ ID No. 20) had any inhibitory effect
